Here are results for 1 protein from article PMC3519907 (PLoS Biology, 2012).

This series concerns the molecule itself. Description: crystal structure; ΔNC-Fab complex 10-20 mg/mL, 25%-35% PEG400, 100 mM Ca-acetate or 300 mM KCl, pH 8.5-9.5, 22°C; dataset refined to 2.5 Å.

B1: ΔNC CLC-ec1 (domain or fragment, Escherichia coli, UniProt P37019 1-460, looked up)
chain: MRRRQLIRQLLERDKTPLAILFMAAVVGTLVGLAAVAFDKGVAWLQNQRMGALVHTADNYPLLLTVAFLCSAVLAMFGYFLVRKYAPEAGGSGIPEIEGALEDQRPVRWWRVLPVKFFGGLGTLGGGMVLGREGPTVQIGGNIGRMVLDIFRLKGDEARHTLLATGAAAGLAAAFNAPLAGILFIIEEMRPQFRYTLISIKAVFIGVIMSTIMYRIFNHEVALIDVGKLSDAPLNTLWLYLILGIIFGIFGPIFNKWVLGMQDLLHRVHGGNITKWVLMGGAIGGLCGLLGFVAPATSGGGFNLIPIATAGNFSMGMLVFIFVARVITTLLCFSSGAPGGIFAPMLALGTVLGTAFGMVAVELFPQYHLEAGTFAIAGMGALLAASIRAPLTGIILVLEMTDNYQLILPMIITGLGATLLAQFTGGKPLYSAILARTLAKQEAEQ
notes: CLC-ec1, Cl-/H+ antiporter of Escherichia coli; Homodimer in the crystal (chains A and B); also called trimmed construct; source: E. coli, purified in decylmaltoside (His-tag removed, Superdex 200 gel filtration)
For the protein B1, the binding result is “binds”.
